Assay: yeast display, Sf9 membrane polyspecificity reagent, FACS + sequencing; frameworks hold sequencing errors
How it was run: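 A nanobody's polyreactivity label depends on the gate it was sorted from. Yeast display cells were stained with 10% biotinylated, detergent-solubilized Sf9 membrane reagent for 1 hour at 4 °C, enriched on streptavidin microbeads and sorted by FACS. The low and high (top ~1%) gates were set on anti-HA fluorescence for expression and streptavidin fluorescence for reagent binding.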

## QVKLQESGGGLVQAGGSLRLSCAASGNISVTGFMGLYRQAPGKERELVASIGIGGTTYYADSVKGRFSISRDNAKNTVYLQMNSLKPEDTAVYYCAGIYLYYAYSYWGQGTQVTVSS
  polyreactivity (PSR sort gate): low polyreactivity

## QVQLVESRGGLVQAGGSLRLSSAASGFIFDDNAMGWYRQAPGKERQLVAAITSGGGSTYYADSVKGRFTISRDNAKNTVYLQMNSLKPDDTAVYSCNAKLFIRWFTYDYWGQGTQVTVSS
  polyreactivity (PSR sort gate): low polyreactivity

## QVQLVESGGGLVQAGGSLRLSCAASGFSFDTYAMGWYRQAPGKERELVAVISRGGSTYYADSVKGRFTISRDNAKNTVYLQMNSLKPEDTAVYYCAARSHGSYAYQYGYWGQGTQVTVSS
  polyreactivity (PSR sort gate): high polyreactivity

## KDQLVESGGGLVQAGGSLRLSSAASGIRFYVHSMGWYRQAPGKERELDASITSSGGSTYYADSVKGRFTISRDKATNSVYLQMNSLKPEDTAVYYCNKERWPVTYREYDYWGQGTQVTVSS
  polyreactivity (PSR sort gate): low polyreactivity

## QVQLVESGGGLVQAGGSLRLSCAAYGSIFSWNAMGWYIQAPRKERELVAGITWSGGGTSYADSVKGRFTISRDNAKNTVYLQMNSLKPEDTAVYYCAKEWIFEFNYWGQGTQVTVSS
  polyreactivity (PSR sort gate): low polyreactivity

## QVQLVESVGGLVQAGGSLRLSCAASGYNFWSNTMGWYRQAPGKERELVAAISQSTASTYYADSVKGRFTISRDNAKNTVYLQMNSLKPEDTAVYYCAAYYNFGDYEYDYWGQGTQVTVSS
  polyreactivity (PSR sort gate): low polyreactivity

## QVQLVESAGGLVQAGGSLLLSCAASGFTFYPYAMGWYRQAPGKERELVAAISNGDSTHYADSVKGRFTISRDNAKNTVYLQMTSQKPEDTAVYYCAAPRYPYRCFYSDYDYWGQGTQVTVSS
  polyreactivity (PSR sort gate): low polyreactivity

## QVQLVESGGGLVQAGGSLRLSCAASGYIIDNNSMAWYRQAPGKERELVASNTNSAGSTSYADSVKGRFTISRDNAKNTVYLQMNSLKPEDTAVYYCAAKRYHYFFPYSRRGAYGYWGQGTQVTVSS
  polyreactivity (PSR sort gate): high polyreactivity

## QVQLEESGGRLVQAGGSLRLSCAASGRILRRYTMGWYRQAPGKETELVAAISSGGNTYYADSVKGRFTISRDNAKNTVYLQMNSLKPEDTAVDYCAARVRRYWEYDYWGQGTQVTVSS
  polyreactivity (PSR sort gate): low polyreactivity

## QVQLVESGGGLVQAGGSLRLSCAASGIIFEGNAMGWYRQAPGKERELVAAISTSTGRTYYADSVKGRFTISRDNAKNTVYLQMNSLKPEDTAVYYCAAYIRTTRFDYWGQGTQVTVSS
  polyreactivity (PSR sort gate): high polyreactivity

## HVQLLESGGGLVQAGGSLRLSCAASGSTFVYYAMGWYRQAPGKERELVAVITRGGRTYYADSVKGRFTISRDNAKTTVYLQMNSVKPEDSEVYYCNKVTPIYHDTVLDYWGQGTQVTVSS
  polyreactivity (PSR sort gate): high polyreactivity

## QVQLVESGGGLVQAGGSLRLSCAASGSIFAKYAMGWYRQAPGKERELVASITYSGGGTYYADSVKGRFTISLDNAKNTVYLQMNSLKPEDTAFYYCNAVKRVYIWASFRYVFWYDSWGQATQVTVSS
  polyreactivity (PSR sort gate): high polyreactivity

## QVQLVESGGGLVQAGGSLRLSCAASGFIFSFYAMGWYRQAPGKESELVAAITSSGATTYYADSVKGRFTISRDNAKNTVYLQMNSLKPVDTAVYYCNAVYRRDTGYYRYYYWGQGTQVTVSS
  polyreactivity (PSR sort gate): high polyreactivity

## QLQLVESGGGLVQAGGSLRITCAASGSTFYCYSMACYRQAPGKERALVARISSSSGRTYYADSVKGRFTISRDNAKNTVYLQMNLLKPEDTAVYYCAKYVYGKFDGVRYSYDYWGQGTQVTVSS
  polyreactivity (PSR sort gate): low polyreactivity

## QVQLVESGGGLVQAGGSLRLSCAASGSIFQGYPMGWYRQAPGKERELVATIRWSSGSRTNYADSVKGRFTISRDNAKNTVYLQMNSLKPEDTAVYYCAAGSRRYKYDYWGQGTQVTVSS
  polyreactivity (PSR sort gate): high polyreactivity

## QVQLVESGGGLVQAGGSLRLSSAASGRIFYRYTMGWYRQAPGKERELVAAITRGSTNYADSVKGRFTISRDNAKNTVYLQMNSLKPDDTAVYYWAKAYSRTDRFSSPYYYYWGQGTQVTVSS
  polyreactivity (PSR sort gate): high polyreactivity

## QVQLVESGGGLVQAGGSLRLSCAASGLTFWANTMGWCRQAPGKEREFVAAITWSGGSTYYADSVKGRFTISRDNAKNTVNLQMNSLKPEDTAVYYCAADEDFAAGYSYYYWGQGSQVTVSS
  polyreactivity (PSR sort gate): low polyreactivity

## QVQLVESGGALVQAGGSLRLSCAASGITFYFYAMGWYIHAPGKEWELVAAIRSSGDSTYYADSVKGRFTISRDNAKNTVYLQMNSRKPEDTAVYYCAAYSHHQFSRSEYYYWGQGTQVTVSS
  polyreactivity (PSR sort gate): low polyreactivity

## QVQLVESGGGLVQAGGSLRLSCSASGFTFSWYAMGWYRQAPGKDRELVAAINADGGTTYYADSVKGRFTISRDNAKNTVYLQMNSLKPEDTAVYYCADELSVDKYDYWGQGTQVTVSS
  polyreactivity (PSR sort gate): low polyreactivity

## QVQLVESGGGLVQAGGSLRLSCAASGFTFRWYAMGWYRQAPGKERELVAAITGSGGSTYYADSVKGRFTISRDNAKNTVYLQMNSLKPEDTAVYYCNRYGVRYYRYDYWGQGTQVTVSS
  polyreactivity (PSR sort gate): high polyreactivity

## QVQLVESGGGLVQAGGSLRLSCAASGITLFYYAMGWYRQAPGKERELVAVISASGGSTYYADSVKGRFTISRDNAKNTVYLQMNSLKPEDTAVYYCAAVAYWRSSSWYYYWGQGTQVTVSS
  polyreactivity (PSR sort gate): high polyreactivity

## QVQLVESGGGLVQAGGSLRLSCAASGSTFGSNAMGWYRQAPGKEREWVAAISWTGGSTYYADSVKGRFTISRDKAKNPVYVHMNSLKPEETAVYYCNDYGYGYPLYRYDYWGQGTQVTVSS
  polyreactivity (PSR sort gate): low polyreactivity

## QVQLVESGGGLVQAGGSLRLTCAASGSTLRYYAMGWYRQAPGKERELVAAISTGGSTYYADSVKGRFTISRDNAKITVYLQINSLKPEDTAVYYCAAEKKTKTYRYDYWGQGTQVTVSS
  polyreactivity (PSR sort gate): low polyreactivity

## QVQLVESWGGLVQAGGSLRLSCAASGNTFIEYAMGWYRQAPGKERELVAAINWNGGSTYYADSVKGRFTISRDNAKNTVYFQMNSLTPEDTAVYYCAADTFRLYGALAEYDYWGQGTQVTVSS
  polyreactivity (PSR sort gate): low polyreactivity

## QVQLVESGGGLVQAGGSLRLSCAASGRTFYDYAMGWYRQAPGKERELVAGIRWSGGSTYYADSVKGRFTISRDNAKNTVFLQMNSLKPEDTAVYYCAADWFAGVAADVEYDYWGQGTQVTVSS
  polyreactivity (PSR sort gate): low polyreactivity

## QVQLVESGGGLVQAAGSLRISCAASGLIFNYYAMGWYRQAPGKERELVAAISKDGGSTYYADSVKGRFTISRDNAKNTVYLQMNSLKPEDTADFYCAARTFRISRMDYRGQGTQVTVSS
  polyreactivity (PSR sort gate): high polyreactivity

## QVQLVESGGGLVQAGGSLRLSCAASGSTFGFNAKGWYRKAPGKERELFAAIDKSGDRHYYADSVKGRFTISRDNAKNSVYLQMNSLKTVDTAVYYCAGDIPFYRYEYWGQGTQVTVSS
  polyreactivity (PSR sort gate): high polyreactivity

## QVHLVESGGGLVQAGGSLRLSSAASGFTFPWYAMGWYRQAPGKERELVATITRGGSTYYADSVKGRFTISRDNAKNTVYLQMNSLKPEDTAVYYCAVTYWRYHSYSPYDYWGQGTQVTVSS
  polyreactivity (PSR sort gate): high polyreactivity

## QVQLVESGGGLVQAGGSLRLSCAASGFTFDGYAMGSYRQAPGKERELVAAISDSGDSTYYADSVKGRFTISRDNAKNTVYLQMNSLKPEDTAVYYCAAPSVGYYDPTDFDYWGQGTQVTVSS
  polyreactivity (PSR sort gate): low polyreactivity

## QVQLVESGGGLVQAGGSLRLSCAASGSTFGGYAMGWYRQAPGKERELVAAISQSGTRSYYADSVKGRFTISRDNAKNTVYLQMNSLKPEDTAVYYCAAEKRFRKYDYWGQGTQVTVSS
  polyreactivity (PSR sort gate): high polyreactivity

## QVQLVESGGGLVQAGGSLRLSCAASGSISVANAMGWYRQAPGKERELVAAITDSGDDTYYADSVKGRFTISRDNAKNTVYLQMNSLKPEDTAVYYCAVEAWSVPPYDYWGQGTQVTVSS
  polyreactivity (PSR sort gate): low polyreactivity

## QVQLVESGGGLVQAGGSLRLSCAASGRTFLIYAMGWYRQAPRKEREFVAAIRGRGGSTYYADSVKGRFTISRDNAKNTVYLQMNSLKPEDTAVYYCAATFPGRSFRIRGYGYDYWGQGTQVTVSS
  polyreactivity (PSR sort gate): high polyreactivity

## QVQLVESGGGLVQAGGSLRLSCAASGRIFTGNVMRWYRQAPGKERELVAAISYGGGSTNYSDSVKGRFTISRDNAKNTVYLQMNSLKQEDTAVYYCAACIKRYLSYYTRYGYWGQGTQVTVSS
  polyreactivity (PSR sort gate): high polyreactivity

## QGQLVESGGGLVQAGGSLRLSCAASGSSLPYYAMGSYRQAPGKERELVATITDGTDTYYADSVKARFTISRDNAKNTVFLQMNSLKTDDSAVYYCNAYGYVYFLHEDYWGQGTQVTVSS
  polyreactivity (PSR sort gate): low polyreactivity

## QVQLVESGGGLVQAGGSLRLSFAASGFTISYYAMGWYRQAPGKERELVAAISQSGGSTYYADSVKGRFTISRDNAKNTVYLQMNSLKPEDTAVYYCAADTYYNLGNYWGQGTQVTVSS
  polyreactivity (PSR sort gate): high polyreactivity

## QVQLVASGGGLVQTGGSLRLSCAASGSTCVWYTIGWYRQAPGKERELVADISRSGGSTYYADSVKGRFTISRDNAKKTIYLQKNSLKAEDTAVYYCARYGYVYNTREPPKVVTFDYSGQGTQVTVSS
  polyreactivity (PSR sort gate): high polyreactivity

## QVQLVESGGGLVQAGGSLRLSCAASGSIFASYAMGWYRQAPGKERELVAAISARGGSTYYADSVKGRFTISRDNAKNTVYLQMNSLKPEDTAVYYCAARHQQGRRISDYGYWGQGTQVTVSS
  polyreactivity (PSR sort gate): high polyreactivity

## QVQLVESGGGLVQAAGSLRLSCAASGFIFLVYSMGWSRQAPGKARELVAAISASGGRTYYADSVKGRFTISRDNAKNTVYLQMNSLKPEDTAVYYCARLLPTPGKPILDYWGQGTQVTVSS
  polyreactivity (PSR sort gate): low polyreactivity

## QVQLVESGGGLVQAGGSLRLSCAASGSIFNYYAMGWYRQAPGKERELVAGITTSGGSTYYADSVKGRFTISRDNAKNTVYLQMNSLKPEDTAVYYWAAYDYISSTYFLDDYWGQGTQVTVSS
  polyreactivity (PSR sort gate): low polyreactivity

## QDQLVESGGGLVQAGGSLRLSCAASGSTFSYNAMGWYRQAPGKERELVAAIRWSGGSTYADSVKGRFTISRDNAKNTVYLQMNSLNPEDTAVYYCAARNFGYPELRYYYWGQGTQVTVSS
  polyreactivity (PSR sort gate): high polyreactivity

## QVQLVESGGGLVQAGGSLRLSCAASGRIFPAYTMGWYRQAPGKERELVAAITWSGGSTYYADSVKGRFTISRDNAKNTVYLQMNSLKPEDTAVYYCAADKLYWYYGTEYGYWGQGTQVTVSS
  polyreactivity (PSR sort gate): low polyreactivity

## QVQLVESGGGLVQAGGSLRLSCAASGITFDYYAMGWYRQAPGKERELVAAISYSGGSTYYADSVKGRFTISRDNAKNTVYVQMNSLKPEDTAVYYCAAETFTISSDYYYWGQGTQVTVSS
  polyreactivity (PSR sort gate): low polyreactivity

## QFQLVESGGGLVQAGGSLRLSCESSGFTFYKYAIGSYRKAPGKERELVAAISRRGTSTYYADSVKGRFTISRDNAKNTVYLQMNSLNPEDTAVYYCNRDVSLSAFDYWGQGTQVTVSS
  polyreactivity (PSR sort gate): high polyreactivity

— the nanobody polyreactivity screen of Harvey et al. (2022)
